The values below come from patent publication US20240092919A1.

To fix the notation:
B1: A022600167 (protein)
chain: DVQLVESGGGVVQPGGSLRLSCVASGYVHKINFYGWYRQAPGKEREKVAHISIGDQTDYADSAKGRFTISRDESKNTVYLQMNSLRPEDTAAYYCRALSRIWPYDYWGQGTLVTVSSGGGGSEVQLVESGGGLVQPGGSLRLSCVASGFTFSSFAMTWVRRPPGKGLEWVATITNGGVTSYRDSVKGRFTISRDNAKNTLYLEMTSLNPEDTAVYICANARRTGPRAPTDIGSYRGQGTLVTVSSGGGGSGGGGSGGGGSGGGGSGGGGSGGGGSGGGGSEVQLVESGGGVVQPGGSLRLSCAASGFTFRSFGMSWVRQAPGKGPEWVSSISGSGSDTLYADSVKGRFTISRDNSKNTLYLQMNSLRPEDTALYYCTIGGSLSRSSQGTLVTVSSA
B2: A022600168 (protein)
chain: DVQLVESGGGVVQPGGSLRLSCVASGYVHKINFYGWYRQAPGKEREKVAHISIGDQTDYADSAKGRFTISRDESKNTVYLQMNSLRPEDTAAYYCRALSRIWPYDYWGQGTLVTVSSGGGGSEVQLVESGGGLVQPGGSLRLSCVASGFTFSSFAMTWVRRPPGKGLEWVATITNGGVTSYRDSVKGRFTISRDNAKNTLYLEMTSLNPEDTAVYICANARRTGPRAPTDIGSYRGQGTLVTVSSGGGGSGGGGSGGGGSGGGGSGGGGSGGGGSGGGGSEVQLVESGGGLVQPGGSLRLSCVASGSIFRSVFSSSTMEWYRQPPGKKRELVARIAPGDGTNYGALYADSVKGRFTISRDDAKKTVDLQMNSLKPEDTGVYFCASGVAWGQGTLVTVSSGGGGSGGGGSGGGGSGGGGSGGGGSGGGGSGGGGSEVQLVESGGGVVQPGGSLRLSCAASGFTFRSFGMSWVRQAPGKGPEWVSSISGSGSDTLYADSVKGRFTISRDNSKNTLYLQMNSLRPEDTALYYCTIGGSLSRSSQGTLVTVSSA
B3: A022600169 (protein)
chain: DVQLVESGGGLVQPGGSLRLSCVASGFTFSSFAMTWVRRPPGKGLEWVATITNGGVTSYRDSVKGRFTISRDNAKNTLYLEMTSLNPEDTAVYICANARRTGPRAPTDIGSYRGQGTLVTVSSGGGGSEVQLVESGGGVVQPGGSLRLSCVASGYVHKINFYGWYRQAPGKEREKVAHISIGDQTDYADSAKGRFTISRDESKNTVYLQMNSLRPEDTAAYYCRALSRIWPYDYWGQGTLVTVSSGGGGSEVQLVESGGGLVQPGGSLRLSCVASGSIFRSVFSSSTMEWYRQPPGKKRELVARIAPGDGTNYGALYADSVKGRFTISRDDAKKTVDLQMNSLKPEDTGVYFCASGVAWGQGTLVTVSSGGGGSGGGGSGGGGSGGGGSGGGGSGGGGSGGGGSEVQLVESGGGVVQPGGSLRLSCAASGFTFRSFGMSWVRQAPGKGPEWVSSISGSGSDTLYADSVKGRFTISRDNSKNTLYLQMNSLRPEDTALYYCTIGGSLSRSSQGTLVTVSSA
B4: A022600135 (protein)
chain: DVQLVESGGGVVQPGGSLRLSCVASGYVHKINFYGWYRQAPGKEREKVAHISIGDQTDYADSAKGRFTISRDESKNTVYLQMNSLRPEDTALYYCRALSRIWPYDYWGQGTLVTVSSGGGGSEVQLVESGGGLVQPGGSLRLSCVASGSIFRSVFSSSTMEWYRQPPGKKRELVARIAPGDGTNYGALYADSVKGRFTISRDDAKKTVDLQMNSLKPEDTGVYFCASGVAWGQGTLVTVSSGGGGSGGGSEVQLVESGGGLVQPGGSLRLSCVASGFTFSSFAMTWVRRPPGKGLEWVATITNGGVTSYRDSVKGRFTISRDNAKNTLYLEMTSLNPEDTAVYICANARRTGPRAPTDIGSYRGQGTLVTVSSGGGGSGGGGSGGGGSGGGGSGGGGSGGGGSGGGGSEVQLVESGGGVVQPGGSLRLSCAASGFTFRSFGMSWVRQAPGKGPEWVSSISGSGSDTLYADSVKGRFTISRDNSKNTLYLQMNSLRPEDTALYYCTIGGSLSRSSQGTLVTVSSA
B5: A022600172 (protein)
chain: DVQLVESGGGVVQPGGSLRLSCVASGYVHKINFYGWYRQAPGKEREKVAHISIGDQTDYADSAKGRFTISRDESKNTVYLQMNSLRPEDTAAYYCRALSRIWPYDYWGQGTLVTVSSGGGGSEVQLVESGGGLVQPGGSLRLSCVASGFTFSSFAMTWVRRPPGKGLEWVATITNGGVTSYRDSVKGRFTISRDNAKNTLYLEMTSLNPEDTAVYICANARRTGPRAPTDIGSYRGQGTLVTVSSGGGGSGGGSEVQLVESGGGVVQPGGSLRLSCAASGFTFRSFGMSWVRQAPGKGPEWVSSISGSGSDTLYADSVKGRFTISRDNSKNTLYLQMNSLRPEDTALYYCTIGGSLSRSSQGTLVTVSSGGGGSGGGSEVQLVESGGGLVQPGGSLRLSCVASGSIFRSVFSSSTMEWYRQPPGKKRELVARIAPGDGTNYGALYADSVKGRFTISRDDAKKTVDLQMNSLKPEDTGVYFCASGVAWGQGTLVTVSSA
B6: A022600170 (protein)
chain: DVQLVESGGGVVQPGGSLRLSCVASGYVHKINFYGWYRQAPGKEREKVAHISIGDQTDYADSAKGRFTISRDESKNTVYLQMNSLRPEDTAAYYCRALSRIWPYDYWGQGTLVTVSSGGGGSEVQLVESGGGLVQPGGSLRLSCVASGFTFSSFAMTWVRRPPGKGLEWVATITNGGVTSYRDSVKGRFTISRDNAKNTLYLEMTSLNPEDTAVYICANARRTGPRAPTDIGSYRGQGTLVTVSSGGGGSGGGGSGGGGSGGGGSGGGGSGGGGSGGGGSEVQLVESGGGLVQPGGSLRLSCVASGSIFRSVFSSSTMEWYRQPPGKKRELVARIAPGDGTNYGALYADSVKGRFTISRDDAKKTVDLQMNSLKPEDTGVYFCASGVAWGQGTLVTVSSGGGGSGGGSEVQLVESGGGVVQPGGSLRLSCAASGFTFRSFGMSWVRQAPGKGPEWVSSISGSGSDTLYADSVKGRFTISRDNSKNTLYLQMNSLRPEDTALYYCTIGGSLSRSSQGTLVTVSSA
B7: A022600174 (protein)
chain: DVQLVESGGGVVQPGGSLRLSCVASGYVHKINFYGWYRQAPGKEREKVAHISIGDQTDYADSAKGRFTISRDESKNTVYLQMNSLRPEDTAAYYCRALSRIWPYDYWGQGTLVTVSSGGGGSEVQLVESGGGLVQPGGSLRLSCVASGFTFSSFAMTWVRRPPGKGLEWVATITNGGVTSYRDSVKGRFTISRDNAKNTLYLEMTSLNPEDTAVYICANARRTGPRAPTDIGSYRGQGTLVTVSSGGGGSGGGSEVQLVESGGGLVQPGGSLRLSCVASGSIFRSVFSSSTMEWYRQPPGKKRELVARIAPGDGTNYGALYADSVKGRFTISRDDAKKTVDLQMNSLKPEDTGVYFCASGVAWGQGTLVTVSSGGGGSGGGSEVQLVESGGGVVQPGGSLRLSCAASGFTFRSFGMSWVRQAPGKGPEWVSSISGSGSDTLYADSVKGRFTISRDNSKNTLYLQMNSLRPEDTALYYCTIGGSLSRSSQGTLVTVSSA
B8: A022600179 (protein)
chain: DVQLVESGGGVVQPGGSLRLSCVASGYVHKINFYGWYRQAPGKEREKVAHISIGDQTDYADSAKGRFTISRDESKNTVYLQMNSLRPEDTAAYYCRALSRIWPYDYWGQGTLVTVSSGGGGSEVQLVESGGGLVQPGGSLRLSCVASGFTFSSFAMTWVRRPPGKGLEWVATITNGGVTSYRDSVKGRFTISRDNAKNTLYLEMTSLNPEDTAVYICANARRTGPRAPTDIGSYRGQGTLVTVSSGGGGSGGGSEVQLVESGGGVVQPGGSLRLSCAASGFTFRSFGMSWVRQAPGKGPEWVSSISGSGSDTLYADSVKGRFTISRDNSKNTLYLQMNSLRPEDTALYYCTIGGSLSRSSQGTLVTVSSA
B9: A022600175 (protein)
chain: DVQLVESGGGVVQPGGSLRLSCVASGYVHKINFYGWYRQAPGKEREKVAHISIGDQTDYADSAKGRFTISRDESKNTVYLQMNSLRPEDTAAYYCRALSRIWPYDYWGQGTLVTVSSGGGGSEVQLVESGGGLVQPGGSLRLSCVASGFTFSSFAMTWVRRPPGKGLEWVATITNGGVTSYRDSVKGRFTISRDNAKNTLYLEMTSLNPEDTAVYICANARRTGPRAPTDIGSYRGQGTLVTVSSGGGGSGGGSEVQLVESGGGLVQPGGSLRLSCVASGSIFRSVFSSSTMEWYRQPPGKKRELVARIAPGDGTNYGALYADSVKGRFTISRDDAKKTVDLQMNSLKPEDTGVYFCASGVAWGQGTLVTVSSGGGGSGGGGSGGGGSGGGGSGGGGSGGGGSGGGGSEVQLVESGGGVVQPGGSLRLSCAASGFTFRSFGMSWVRQAPGKGPEWVSSISGSGSDTLYADSVKGRFTISRDNSKNTLYLQMNSLRPEDTALYYCTIGGSLSRSSQGTLVTVSSA

This assay has as its target human GPC3 on cells (human) (UniProt P51654). As to the kind of experiment: cell-based or functional assay.
Take B1: the HepG2 on Incucyte IC50 (M), human TDC, E:T 15:1, 60 h turned out to be 1.92e-09 M; the HepG2 on Incucyte Max % killing, 60 h was determined as 98%; the Huh7 on xCELLigence IC50 (M), human TDC, E:T 15:1, 60 h came out at 8.61e-09 M; the Huh7 on xCELLigence Max % killing, 60 h worked out at 91%. In addition, the IC50 (M), xCELLigence human TDC assay on Hep-G2, E:T 15:1, 60 h was 9.2e-11 M; the IC50 (M), xCELLigence human TDC assay on Huh-7, E:T 15:1, 60 h is 4.7e-10 M; the IC50 (M), xCELLigence human TDC assay on NCI-H661, E:T 15:1, 75 h amounted to 1.8e-10 M.

The molecule B2 had a HepG2 on Incucyte IC50 (M), human TDC, E:T 15:1, 60 h of 3.67e-10 M; a HepG2 on Incucyte Max % killing, 60 h of 103%; a Huh7 on xCELLigence IC50 (M), human TDC, E:T 15:1, 60 h of 1.98e-10 M; a Huh7 on xCELLigence Max % killing, 60 h of 107%. For the same molecule, the IC50 (M), xCELLigence human TDC assay on Hep-G2, E:T 15:1, 60 h amounted to 7.3e-11 M; the IC50 (M), xCELLigence human TDC assay on Huh-7, E:T 15:1, 60 h came to 2.4e-11 M; the IC50 (M), xCELLigence human TDC assay on NCI-H661, E:T 15:1, 75 h was 1.4e-10 M.

For B3, the HepG2 on Incucyte IC50 (M), human TDC, E:T 15:1, 60 h was determined as 6.41e-10 M; the HepG2 on Incucyte Max % killing, 60 h was 81%; the Huh7 on xCELLigence IC50 (M), human TDC, E:T 15:1, 60 h came to 1.02e-09 M; the Huh7 on xCELLigence Max % killing, 60 h came out at 61%.

B4: the IC50 (M), Incucyte human TDC HepG2-Nuclight green assay, E:T 15:1 (Step 2) was 6.11e-10 M and the Max % Killing, Incucyte human TDC HepG2-Nuclight green assay (Step 2) turned out to be 91%.

Take B5: the HepG2 on Incucyte IC50 (M), human TDC, E:T 15:1, 60 h was 6.01e-10 M; the HepG2 on Incucyte Max % killing, 60 h was 81%; the Huh7 on xCELLigence IC50 (M), human TDC, E:T 15:1, 60 h was 6.7e-11 M; the Huh7 on xCELLigence Max % killing, 60 h turned out to be 90%.

As to B6, the HepG2 on Incucyte IC50 (M), human TDC, E:T 15:1, 60 h was 3.19e-10 M; the HepG2 on Incucyte Max % killing, 60 h worked out at 97%; the Huh7 on xCELLigence IC50 (M), human TDC, E:T 15:1, 60 h was 1.86e-10 M; the Huh7 on xCELLigence Max % killing, 60 h was determined as 103%.

B7 came in with a HepG2 on Incucyte IC50 (M), human TDC, E:T 15:1, 60 h of 6.73e-10 M; a HepG2 on Incucyte Max % killing, 60 h of 96%; a Huh7 on xCELLigence IC50 (M), human TDC, E:T 15:1, 60 h of 6.26e-11 M; a Huh7 on xCELLigence Max % killing, 60 h of 99%.

As for B8, the HepG2 on Incucyte IC50 (M), human TDC, E:T 15:1, 60 h was 2.92e-09 M; the HepG2 on Incucyte Max % killing, 60 h is 76%; the Huh7 on xCELLigence IC50 (M), human TDC, E:T 15:1, 60 h was 6.13e-09 M; the Huh7 on xCELLigence Max % killing, 60 h is 66%.

The molecule B9 registered a HepG2 on Incucyte IC50 (M), human TDC, E:T 15:1, 60 h of 5.27e-10 M; a HepG2 on Incucyte Max % killing, 60 h of 96%; a Huh7 on xCELLigence IC50 (M), human TDC, E:T 15:1, 60 h of 5.86e-11 M; a Huh7 on xCELLigence Max % killing, 60 h of 99%.
